One test concerns CD11c^− microglia. As to the kind of experiment: Apoptotic neuron (AN) uptake and CD11c^- to CD11c^+ differentiation of microglia with αVβ3 / TAM receptor inhibitors. Particulars: P5 B6-WT CD11c^− microglia, 72 h with pHrodo-labeled ANs 1:1; cilengitide 10 μM, LDC1267 1 μM. In kind it is cell-based, mouse. From the text:
(A) Brain single cell suspensions of 9-mo old WT mice were generated for validation of microglial CD11c expression by flow cytometry. We first gate on CD11b^+ cells from single/live cells followed by subsequent gating of CD11b^+CD45^low populations as potential microglia. […] In contrast, CCR2 but not Tmem 119 expression is detected in the CD11b^+CD45^high fraction, i.e., putative macrophage populations. Analysis of the CD11b^+CD45^low microglial population using FMO negative controls for these FACS plots confirms specificity. […] (B) The proportion of CD11c^+ microglia in C57BL/6 (B6) mice during early development and normal aging (n=3) was determined by flow cytometry analysis. CD11c^+ microglia were initially present at late embryonic day (E18.5), peaked at early postanal day (P5) and gradually declined to marginal levels in young adulthood (3-mon) followed by re-emergence and further expansion during aging. (C) CD11c^− microglia were isolated from P5 B6-WT mice by negative section with anti-CD11c magnetic beads (purity >99%) followed by co-incubation×72 h in the presence or absence of pHrodo fluorescent dye-labeled apoptotic neurons (ANs) at a 1:1 ratio. After 72 h incubation, 23% of total CD11c^− microglia had ingested ANs (AN^+), of which 77.4% of these AN^+ microglia were CD11c^+. […] Expression of CD11c was assessed in CD86^+ or MHC II^+ activated microglia. […]

For test [1], the target named is CD11b on microglia from 5XFAD mice (mouse) (UniProt P05555). The test is described as follows: flow cytometry, AF488-CD11b fluorescence, microglia from 5XFAD mice; isotype control histogram (top trace) [B]. For orientation: In flow cytometry, cells or beads pass a laser one at a time.
Chain of UniProt P05555 (P05555 17-1153): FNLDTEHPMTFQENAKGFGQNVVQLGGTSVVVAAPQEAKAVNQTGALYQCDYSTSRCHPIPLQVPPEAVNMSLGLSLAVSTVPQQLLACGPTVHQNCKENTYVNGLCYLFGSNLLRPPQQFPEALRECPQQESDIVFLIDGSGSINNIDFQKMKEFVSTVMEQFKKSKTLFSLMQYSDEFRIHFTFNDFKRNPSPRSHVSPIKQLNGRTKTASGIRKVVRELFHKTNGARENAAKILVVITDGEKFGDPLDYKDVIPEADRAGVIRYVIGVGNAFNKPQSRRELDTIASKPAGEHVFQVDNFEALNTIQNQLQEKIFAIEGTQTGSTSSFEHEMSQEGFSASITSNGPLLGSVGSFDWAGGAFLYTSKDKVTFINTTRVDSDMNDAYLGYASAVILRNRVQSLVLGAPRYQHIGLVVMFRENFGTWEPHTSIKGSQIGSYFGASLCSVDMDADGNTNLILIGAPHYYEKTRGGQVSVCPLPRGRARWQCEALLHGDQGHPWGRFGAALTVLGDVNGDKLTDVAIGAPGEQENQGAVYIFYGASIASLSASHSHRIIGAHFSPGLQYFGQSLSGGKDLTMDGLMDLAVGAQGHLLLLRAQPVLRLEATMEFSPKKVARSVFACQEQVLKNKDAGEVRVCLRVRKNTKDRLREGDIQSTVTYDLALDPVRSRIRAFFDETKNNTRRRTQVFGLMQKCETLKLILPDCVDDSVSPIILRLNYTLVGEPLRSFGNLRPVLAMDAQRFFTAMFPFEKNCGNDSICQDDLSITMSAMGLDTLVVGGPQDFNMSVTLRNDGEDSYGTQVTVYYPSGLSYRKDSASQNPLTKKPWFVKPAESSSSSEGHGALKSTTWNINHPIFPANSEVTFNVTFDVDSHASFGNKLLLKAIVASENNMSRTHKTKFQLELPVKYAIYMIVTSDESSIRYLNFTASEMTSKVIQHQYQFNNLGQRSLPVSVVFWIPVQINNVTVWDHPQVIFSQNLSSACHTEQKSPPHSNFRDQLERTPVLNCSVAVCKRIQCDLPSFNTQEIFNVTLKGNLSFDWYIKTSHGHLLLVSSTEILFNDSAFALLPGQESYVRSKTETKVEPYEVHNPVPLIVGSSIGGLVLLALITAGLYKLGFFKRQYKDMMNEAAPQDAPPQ
In test [2] the target is osteopontin (OPN) produced by mouse microglia (mouse) (UniProt P10923). The test is described as follows: intracellular flow cytometry, SSC against OPN, microglia stained with the isotype control (the legend says only 'Isotype control'; genotype of this panel not labelled) [b].
Chain of UniProt P10923 (P10923 17-294 limits assumed): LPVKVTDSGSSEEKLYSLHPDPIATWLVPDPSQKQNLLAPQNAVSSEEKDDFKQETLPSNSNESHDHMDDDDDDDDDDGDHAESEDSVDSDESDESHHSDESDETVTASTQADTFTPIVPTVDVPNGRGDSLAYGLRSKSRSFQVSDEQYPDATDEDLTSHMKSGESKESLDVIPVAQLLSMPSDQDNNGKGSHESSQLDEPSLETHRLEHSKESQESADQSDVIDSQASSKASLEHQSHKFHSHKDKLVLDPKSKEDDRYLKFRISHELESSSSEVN
The target is the same in test [3]. As to the kind of experiment: intracellular flow cytometry, SSC against OPN, microglia of 9-mo mice stained with the isotype control 1:10 (genotype of this panel not labelled).

For the compound `CCOc1cn(-c2ccc(F)cc2C)nc1C(=O)Nc1ccc(Oc2ccnc3cc(OC)c(OC)cc23)c(F)c1` [LDC1267], in the test on CD11c^− microglia, the “reduction of AN uptake by CD11c^− microglia” value is given as “about 50%”.
The compound Isotype (antibody) returned a CD11b+ microglia (%) in test [1] of 0.4%.
Regarding “isotype control (PE-conjugated goat IgG) (antibody)”, in test [2], the number printed in the OPN+ gate (frequency of OPN+ microglia) is 0.25%. Moreover, the number printed over the OPN+ gate (frequency of OPN+ microglia) in test [3] was 0.4%.

Values taken from patent US20250381277A1, “COMPOSITIONS AND METHODS FOR TREATMENT OF NEUROLOGICAL DISORDERS” (Dana-Farber Cancer Institute, Inc., priority 2022, published 2025).
